Experimental data: the supplement of paper PMC5998384

How the values were obtained:
[1] = test system: HeLa Kyoto; assay: solubility in G1/S (NP-40 vs SDS abundance) (log2 ratio); higher = more soluble; conditions: cell cycle stage: G1/S
[2] = test system: HeLa Kyoto; assay: solubility change mitosis vs G1/S (difference of NP-40 vs SDS log2 ratios) (log2 ratio difference); higher = more soluble in mitosis
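For solubility change mitosis vs G1/S (difference of NP-40 vs SDS log2 ratios) in this document: synchronized HeLa Kyoto cells (double thymidine block for G1/S, nocodazole release for mitosis), protein amounts in NP-40 versus SDS lysates quantified by mass spectrometry, three biological replicates.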
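For solubility in G1/S (NP-40 vs SDS abundance) in this document: HeLa Kyoto cells arrested at G1/S by double thymidine block, proteins quantified by TMT10plex mass spectrometry in mild NP-40 versus SDS extracts, three biological replicates.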

IFT140, sequence (chain, as listed by the source): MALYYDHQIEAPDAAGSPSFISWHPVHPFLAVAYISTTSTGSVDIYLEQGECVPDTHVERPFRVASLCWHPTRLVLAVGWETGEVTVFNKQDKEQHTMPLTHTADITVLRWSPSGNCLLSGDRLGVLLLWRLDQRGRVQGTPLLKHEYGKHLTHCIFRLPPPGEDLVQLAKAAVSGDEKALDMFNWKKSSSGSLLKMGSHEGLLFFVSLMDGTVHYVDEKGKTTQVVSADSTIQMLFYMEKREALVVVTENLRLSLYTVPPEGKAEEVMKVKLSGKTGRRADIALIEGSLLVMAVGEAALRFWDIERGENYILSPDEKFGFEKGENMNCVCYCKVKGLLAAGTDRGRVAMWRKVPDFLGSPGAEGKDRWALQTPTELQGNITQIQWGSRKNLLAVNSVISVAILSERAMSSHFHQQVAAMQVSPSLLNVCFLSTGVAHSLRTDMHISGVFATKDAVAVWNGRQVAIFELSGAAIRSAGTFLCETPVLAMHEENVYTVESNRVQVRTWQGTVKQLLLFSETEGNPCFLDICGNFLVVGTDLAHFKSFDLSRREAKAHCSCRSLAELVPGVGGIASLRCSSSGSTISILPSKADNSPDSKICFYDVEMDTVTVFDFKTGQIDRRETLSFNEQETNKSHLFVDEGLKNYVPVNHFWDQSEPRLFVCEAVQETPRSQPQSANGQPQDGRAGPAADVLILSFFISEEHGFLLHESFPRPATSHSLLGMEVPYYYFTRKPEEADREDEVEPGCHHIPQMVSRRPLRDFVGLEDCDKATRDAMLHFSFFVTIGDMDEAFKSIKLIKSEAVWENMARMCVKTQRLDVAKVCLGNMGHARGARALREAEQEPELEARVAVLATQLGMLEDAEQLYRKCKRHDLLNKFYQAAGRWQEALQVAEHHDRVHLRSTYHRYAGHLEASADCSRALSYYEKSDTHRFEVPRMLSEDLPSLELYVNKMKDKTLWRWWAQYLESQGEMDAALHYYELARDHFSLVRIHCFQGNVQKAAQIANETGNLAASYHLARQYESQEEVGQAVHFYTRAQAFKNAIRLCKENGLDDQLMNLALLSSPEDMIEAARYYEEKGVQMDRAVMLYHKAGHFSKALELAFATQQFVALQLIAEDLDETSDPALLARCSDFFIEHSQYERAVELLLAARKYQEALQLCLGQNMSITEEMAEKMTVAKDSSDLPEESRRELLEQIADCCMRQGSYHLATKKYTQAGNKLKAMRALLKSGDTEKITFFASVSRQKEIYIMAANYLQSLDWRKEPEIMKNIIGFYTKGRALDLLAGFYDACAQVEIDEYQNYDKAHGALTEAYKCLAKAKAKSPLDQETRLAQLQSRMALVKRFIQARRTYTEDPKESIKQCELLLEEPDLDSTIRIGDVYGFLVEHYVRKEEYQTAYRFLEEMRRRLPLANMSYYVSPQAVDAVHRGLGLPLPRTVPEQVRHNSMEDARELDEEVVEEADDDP

MDTDSQRSHLSSFTMKLMDKFHSPKIKRTPSKKGKPAEVSVKIPEKPVNKEATDRFLPEGYPLPLDLEQQAVEFMSTSAVASRSQRQKNLSWLEEKEKEVVSALRYFKTIVDKMAIDKKVLEMLPGSASKVLEAILPLVQNDPRIQHSSALSSCYSRVYQSLANLIRWSDQVMLEGVNSEDKEMVTTVKGVIKAVLDGVKELVRLTIEKQGRPSPTSPVKPSSPASKPDGPAELPLTDREVEILNKTTGMSQSTELLPDATDEEVAPPKPPLPGIRVVDNSPPPALPPKKRQSAPSPTRVAVVAPMSRATSGSSLPVGINRQDFDVDCYAQRRLSGGSHSYGGESPRLSPCSSIGKLSKSDEQLSSLDRDSGQCSRNTSCETLDHYDPDYEFLQQDLSNADQIPQQTAWNLSPLPESLGESGSPFLGPPFQLPLGGHPQPDGPLAPGQQTDTPPALPEKKRRSAASQTADGSGCRVSYERHPSQYDNISGEDLQSTAPIPSVPYAPFAAILPFQHGGSSAPVEFVGDFTAPESTGDPEKPPPLPEKKNKHMLAYMQLLEDYSEPQPSMFYQTPQNEHIYQQKNKLLMEVYGFSDSFSGVDSVQELAPPPALPPKQRQLEPPAGKDGHPRDPSAVSGVPGKDSRDGSERAPKSPDALESAQSEEEVDELSLIDHNEIMSRLTLKQEGDDGPDVRGGSGDILLVHATETDRKDLVLYCEAFLTTYRTFISPEELIKKLQYRYEKFSPFADTFKKRVSKNTFFVLVRVVDELCLVELTEEILKLLMELVFRLVCNGELSLARVLRKNILDKVDQKKLLRCATSSQPLAARGVAARPGTLHDFHSHEIAEQLTLLDAELFYKIEIPEVLLWAKEQNEEKSPNLTQFTEHFNNMSYWVRSIIMLQEKAQDRERLLLKFIKIMKHLRKLNNFNSYLAILSALDSAPIRRLEWQKQTSEGLAEYCTLIDSSSSFRAYRAALSEVEPPCIPYLGLILQDLTFVHLGNPDYIDGKVNFSKRWQQFNILDSMRCFQQAHYDMRRNDDIINFFNDFSDHLAEEALWELSLKIKPRNITRRKTDREEKT [RAPGEF1]
solubility in G1/S (log2) [1]: -0.18 | solubility change mitosis (log2) [2]: 0.157

CEP295
solubility in G1/S (log2) [1]: 0.074 | solubility change mitosis (log2) [2]: -0.138

MEEVREGHALGGGMEADGPASLQELPPSPRSPSPPPSPPPLPSPPSLPSPAAPEAPELPEPAQPSEAHARQLLLEEWGPLSGGLELPQRLTWKLLLLRRPLYRNLLRSPNPEGINIYEPAPPTGPTQRPLETLGNFRGWYIRTEKLQQNQSWTVKQQCVDLLAEGLWEELLDDEQPAITVMDWFEDSRLDACVYELHVWLLAADRRTVIAQHHVAPRTSGRGPPGRWVQVSHVFRHYGPGVRFIHFLHKAKNRMEPGGLRRTRVTDSSVSVQLRE [NCCRP1]
solubility in G1/S (log2) [1]: 0.178 | solubility change mitosis (log2) [2]: -0.0982

MALVTVSRSPPGSGASTPVGPWDQAVQRRSRLQRRQSFAVLRGAVLGLQDGGDNDDAAEASSEPTEKAPSEEELHGDQTDFGQGSQSPQKQEEQRQHLHLMVQLLRPQDDIRLAAQLEAPRPPRLRYLLVVSTREGEGLSQDETVLLGVDFPDSSSPSCTLGLVLPLWSDTQVYLDGDGGFSVTSGGQSRIFKPISIQTMWATLQVLHQACEAALGSGLVPGGSALTWASHYQERLNSEQSCLNEWTAMADLESLRPPSAEPGGSSEQEQMEQAIRAELWKVLDVSDLESVTSKEIRQALELRLGLPLQQYRDFIDNQMLLLVAQRDRASRIFPHLYLGSEWNAANLEELQRNRVTHILNMAREIDNFYPERFTYHNVRLWDEESAQLLPHWKETHRFIEAARAQGTHVLVHCKMGVSRSAATVLAYAMKQYECSLEQALRHVQELRPIARPNPGFLRQLQIYQGILTASRQSHVWEQKVGGVSPEEHPAPEVSTPFPPLPPEPEGGGEEKVVGMEESQAAPKEEPGPRPRINLRGVMRSISLLEPSLELESTSETSDMPEVFSSHESSHEEPLQPFPQLARTKGGQQVDRGPQPALKSRQSVVTLQGSAVVANRTQAFQEQEQGQGQGQGEPCISSTPRFRKVVRQASVHDSGEEGEA [SSH3]
solubility in G1/S (log2) [1]: 0.212 | solubility change mitosis (log2) [2]: -0.161

MAAFGRQVLDWHRLIPLTWACMARQTPHLGEQRRTTASLLRKLTTASNGGVIEELSCVRSNNYVQEPECRRNLVQCLLEKQGTPVVQGSLELERVMSSLLDMGFSNAHINELLSVRRGASLQQLLDIISEFILLGLNPEPVCVVLKKSPQLLKLPIMQMRKRSSYLQKLGLGEGKLKRVLYCCPEIFTMRQQDINDTVRLLKEKCLFTVQQVTKILHSCPSVLREDLGQLEYKFQYAYFRMGIKHPDIVKSEYLQYSLTKIKQRHIYLERLGRYQTPDKKGQTQIPNPLLKDILRVSEAEFLARTACTSVEEFQVFKKLLAREEEESESSTSDDKRASLDEDEDDDDEEDNDEDDNDEDDDDEDDDEAEDNDEDEDDDEEE [MTERF4]
solubility in G1/S (log2) [1]: 0.434 | solubility change mitosis (log2) [2]: -0.0189

MPCVQAQYSPSPPGSSYAAQTYSSEYTTEIMNPDYTKLTMDLGSTEITATATTSLPSISTFVEGYSSNYELKPSCVYQMQRPLIKVEEGRAPSYHHHHHHHHHHHHHHQQQHQQPSIPPASSPEDEVLPSTSMYFKQSPPSTPTTPAFPPQAGALWDEALPSAPGCIAPGPLLDPPMKAVPTVAGARFPLFHFKPSPPHPPAPSPAGGHHLGYDPTAAAALSLPLGAAAAAGSQAAALESHPYGLPLAKRAAPLAFPPLGLTPSPTASSLLGESPSLPSPPSRSSSSGEGTCAVCGDNAACQHYGVRTCEGCKGFFKRTVQKNAKYVCLANKNCPVDKRRRNRCQYCRFQKCLSVGMVKEVVRTDSLKGRRGRLPSKPKSPLQQEPSQPSPPSPPICMMNALVRALTDSTPRDLDYSRYCPTDQAAAGTDAEHVQQFYNLLTASIDVSRSWAEKIPGFTDLPKEDQTLLIESAFLELFVLRLSIRSNTAEDKFVFCNGLVLHRLQCLRGFGEWLDSIKDFSLNLQSLNLDIQALACLSALSMITERHGLKEPKRVEELCNKITSSLKDHQSKGQALEPTESKVLGALVELRKICTLGLQRIFYLKLEDLVSPPSIIDKLFLDTLPF [NR4A3]
solubility in G1/S (log2) [1]: -0.0603 | solubility change mitosis (log2) [2]: -0.0421

MADWARAQSPGAVEEILDRENKRMADSLASKVTRLKSLALDIDRDAEDQNRYLDGMDSDFTSMTSLLTGSVKRFSTMARSGQDNRKLLCGMAVGLIVAFFILSYFLSRART [BET1L]
solubility in G1/S (log2) [1]: -0.104 | solubility change mitosis (log2) [2]: 0.0489

HECTD4
solubility in G1/S (log2) [1]: -0.212 | solubility change mitosis (log2) [2]: 0.00851

MAAAKPTLTDSLSFCLAQLAAAAGEALGGEKDPATNETPLSRALLALRTRHIKAAGGIERFRARGGLRPLLALLRRAAAAGSAPSQAGPGSAPSSAASGASSPAPASGPAPSAVSSSSPTPPVRLRKTLDLALSILADCCTEGACRTEVRRLGGILPLVTILQCMKTDSIQNRTARALGNLAMEPESCGDIHCAGAVPLLVESLTACQDSQCLQSVVRALRNLADSPQHRLALAQQGAVRPLAELLATAPDAALTLALVRALLELSRGCSRACAEQLSLGGGLGPLVSLASHPKRAVREGTILILANLCAQGLIRPALGNAGGVEVLVDELRQRRDPNGASPTSQQPLVRAVCLLCREAINRARLRDAGGLDLLMGLLRDPRASAWHPRIVAALVGFLYDTGALGRLQALGLVPLLAGQLCGEAGEEEEEGREAASWDFPEERTPERAQGGSFRSLRSWLISEGYATGPDDISPDWSPEQCPPEPMEPASPAPTPTSLRAPRTQRTPGRSPAAAIEEPWGREGPALLLLSRFSQAPDPSGALVTGPALYGLLTYVTGAPGPPSPRALRILSRLTCNPACLEAFVRSYGAALLRAWLVLGVAPDDWPAPRARPTLHSRHRELGERLLQNLTVQAESPFGVGALTHLLLSGSPEDRVACALTLPFICRKPSLWRRLLLEQGGLRLLLAALTRPAPHPLFLFFAADSLSCLQDLVSPTVSPAVPQAVPMDLDSPSPCLYEPLLGPAPVPAPDLHFLLDSGLQLPAQRAASATASPFFRALLSGSFAEAQMDLVPLRGLSPGAAWPVLHHLHGCRGCGAALGPVPPPGQPLLGSEAEEALEAAGRFLLPGLEEELEEAVGRIHLGPQGGPESVGEVFRLGRPRLAAHCARWTLGSEQCPRKRGLALVGLVEAAGEEAGPLTEALLAVVMGIELGARVPA [ARMC5]
solubility in G1/S (log2) [1]: 0.0745 | solubility change mitosis (log2) [2]: 0.0453

IFT140
solubility in G1/S (log2) [1]: -0.373 | solubility change mitosis (log2) [2]: 0.0597
